Data as given in US20260285966 (published 2026).
Read-outs that look alike come from different tables or passages of the source.

T1: cynomolgus IL-15+IL-15Ralpha complex (Macaca fascicularis)
T1 chain 1: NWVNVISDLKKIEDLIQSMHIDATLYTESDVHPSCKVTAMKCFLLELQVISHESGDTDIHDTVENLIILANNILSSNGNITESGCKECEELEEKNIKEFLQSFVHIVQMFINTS
T1 chain 2: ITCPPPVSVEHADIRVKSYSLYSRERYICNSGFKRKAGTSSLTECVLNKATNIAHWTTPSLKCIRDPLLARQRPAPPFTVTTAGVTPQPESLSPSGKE


Assays:
Assay in all cases: SPR
[1] = target: human IL-15+IL-15Ralpha complex (human)
[2] = target: T1, cynomolgus IL-15+IL-15Ralpha complex
[3] = target: human IL-15+IL-15Ralpha complex (human); remark: listed apart in the source
[4] = target: human IL-15+IL-15Ralpha complex (human); remark: listed apart in the source
[5] = target: human IL-15+IL-15Ralpha complex (human); remark: listed apart in the source

Kd [1] [pM]	Kd [2] [pM]	Kd [3] [pM]	Kd [4] [pM]	Kd [5] [pM]	Binder
201	148	337	239		CALY-002 (antibody, V domains shown) VH: EVQLVESGGGLVQPGGSLRLSCAASEFTFSNYAMSWVRQAPGKGLEWVATISRGGDYTYYPDSVKGRFTISRDNSKNTLYLQMNSLRAEDTAVYYCARRVSMITGGWAMDYWGQGTLVTVSS VL: DVVMTQSPLSLPVTLGQPASISCRSSQSIVDITGNTYLEWYQQRPGQSPRLLIYKVFNRFSGVPDRFSGSGSGTDFTLKISRVEAEDVGVYYCFQDSFVPYTFGQGTKLEIK
				353	R1A3 (antibody, V domains shown) VH: EVQLVQSGAEVKKPGESLKISCKVSGYFFTTYWIGWVRQMPGKGLEYMGIIYPGDSDTRYSPSFQGQVTISADKSISTAYLQWSSLKASDTAMYYCARGGHWNAFDFWGQGTLVTVSS VL: EIVLTQSPGTLSLSPGERATLSCRASQSVSSSYLAWYQQKPGQAPRLLIYGASRRATGIPDRFSGSGSGTDFTLTISRLEPEDFAVYYCQQFDASQTFGQGTKLEIS
